The target of assay [1] is T1, GLP-1 receptor in rat hypothalamic membrane preparations (rat, UniProt P32301 22-463).
T1 construct: whole, on cells; Native receptor in a rat hypothalamic membrane preparation, not intact cells and not a recombinant construct; also called GLP-receptor; GLP-IR
T1 sequence (looked up): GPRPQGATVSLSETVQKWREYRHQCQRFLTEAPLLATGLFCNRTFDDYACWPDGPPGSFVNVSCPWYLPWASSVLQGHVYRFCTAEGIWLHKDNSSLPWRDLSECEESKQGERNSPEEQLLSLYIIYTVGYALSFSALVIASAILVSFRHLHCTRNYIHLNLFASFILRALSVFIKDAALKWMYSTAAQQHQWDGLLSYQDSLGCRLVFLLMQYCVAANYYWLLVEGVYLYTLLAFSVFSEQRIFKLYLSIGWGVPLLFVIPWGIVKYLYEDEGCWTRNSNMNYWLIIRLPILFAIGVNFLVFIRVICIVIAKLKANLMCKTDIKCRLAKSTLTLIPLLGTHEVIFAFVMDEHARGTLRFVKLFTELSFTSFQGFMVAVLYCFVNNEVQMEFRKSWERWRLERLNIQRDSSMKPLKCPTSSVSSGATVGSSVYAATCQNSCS
Nature of the assay: competition with [125I]GLP-1 on rat hypothalamic membranes, radioligand displacement. As for the experimental part:
(§1) Membranes were incubated at room temperature for 90 min. Bound and free radioactivity were separated by centrifugation (2 min, 4° C.). Pelleted membranes were washed with assay buffer (0.5 ml, ice-cold), and the membranes were centrifuged as described above. The supernatant was removed, and the radioactivity in the pellet was counted using a γ-counter. […] All curves were constructed with points in triplicate. IC₅₀ values were calculated using the Prism 3 program (GraphPad Software, Inc., San Diego, Calif.).

The target in assay [2] is T1, GLP-1 receptor in rat hypothalamic …. Kind of assay: competition with [125I]GLP-1 (100 pM) on rat hypothalamic membranes, radioligand displacement. On the procedure:
as §1

In general, IC50 refers to the concentration needed to halve the response being measured. HSQGTFTSDYSKYLDSRRAQDFVQWLMNTKRNKNNIA (Bought from IAF BioChem Pharma) [human oxyntomodulin (OXM)]: the “affinity relative to GLP-1” value in assay [1] was ~2 orders of magnitude weaker than GLP-1. The molecule further showed an IC50 in assay [2] of 8.2 nM.
